Tests used:
Human recombinant CD38 = Human recombinant CD38 (human, UniProt P28907 43-300, limits assumed); test: cell-based or functional assay
[1] = molecular target: T1, HA-CD38 (N-terminal HA tag, extracellular domain of human CD38), wild type (human, UniProt P28907 45-300); test: ELISA, HA-CD38 captured by anti-HA antibody
T1 construct: Used as culture supernatant of HEK-293F cells, captured by anti-HA antibody; also called wild type (WT) CD38; pEE13.4HACD38

[2] = molecular target: T2, human CD38 on CD38-transfected CHO cells (CHO-CD38 cells) (human, UniProt P28907 1-300); test: flow cytometry on CHO-CD38 cells, anti-human IgG-FITC
T2 construct: The construct used to transfect the CHO cells is not described; also called CHO cells transfected with CD38; cellular expressed CD38

CD38 on Daudi-luc cells = molecular target: T3, CD38 on Daudi-luc cells (UniProt P28907 1-300); test: flow cytometry on Daudi-luc cells, anti-human IgG-FITC
T3 construct: whole, on cells; also called Daudi cells

HuMab-KLH (antibody)
pmol cADPR/min (reverse cyclase reaction) (pmol cADPR/min) (Human recombinant CD38): 4.3

B1: anti-CD38 antibody 025 (antibody, human IgG1, V domains shown)
VH: QVQLVQSGAEVKKPGSSVKVSCKAFGGTFSSYAISWVRQAPGQGLEWMGRIIRFLGKANHAQKFQGRVTLTADKSTNTAYMELSSLRSEDTAVYYCAGEPGDRDPDAVDIWGQGTMVTVSS
VL: DIQMTQSPSSLSASVGDRVTITCRASQGIRSWLAWYQQKPEKAPKSLIYAASSLQSGVPSRFSGSGSGTDFTLTISSLQPEDFATYYCQQYNSYPLTFGGGTKVEIK
binding result [1]: binds
binding result [2]: binds
binding result (CD38 on Daudi-luc cells): binds

B2: anti-CD38 antibody 026 (antibody, human IgG1, V domains shown)
VH: QVQLVQSGAEVKKPGSSVKVSCKAFGGTFSSYAISWVRQAPGQGLEWMGRIIRFLGKTNHAQKFQGRVTLTADKSTNTAYMELSSLRSEDTAVYYCAGEPGDRDPDAVDIWGQGTMVTVSS
VL: DIQMTQSPSSLSASVGDRVTITCRASQGIRSWLAWYQQKPEKAPKSLIYAASSLQSGVPSRFSGSGSGTDFTLTISSLQPEDFATYYCQQYNSYPLTFGGGTKVEIK
notes: also called -057
binding result [1]: binds
binding result [2]: binds
binding result (CD38 on Daudi-luc cells): binds

B3: anti-CD38 antibody 028 (antibody, human IgG1, V domains shown)
VH: QVQLVQSGAEVKKPGSSVKVSCKAFGGTFSSYAISWVRQAPGQGLEWMGRIIRFLGIANYAQKFQGRVTLIADKSTNTAYMELSSLRSEDTAVYYCAGEPGERDPDAVDIWGQGTMVTVSS
VL: DIQMTQSPSSLSASVGDRVTITCRASQGIRSWLAWYQQKPEKAPKSLIYAASSLQSGVPSRFSGSGSGTDFTLTISSLQPEDFATYYCQQYNSYPLTFGGGTKVEIK
IC50 of inhibition of NAADP production (base-exchange activity, HPLC) (Human recombinant CD38): 0.14 µg/mL

B4: anti-CD38 antibody 049 (antibody, human IgG1, V domains shown)
VH: QVQLVQSGAEVMKPGSSVKVSCKASGGTFRSYAISWVRQAPGQGLEWMGRIIVFLGKTNYAQKFQGRVTLTADKSTTTAYMELSSLRSEDTAVYYCTGEPGARDPDAFDIWGQGTMVTVSS
VL: DIQMTQSPSSLSASVGDRVTITCRASQGIRSWLAWYQQKPEKAPKSLIYAASSLQSGVPSRFSGSGSGTDFTLTISSLQPEDFATYYCQQYNNYPLTFGGGTKVEIK
binding result [1]: binds
binding result [2]: binds
binding result (CD38 on Daudi-luc cells): binds

B5: anti-CD38 antibody 056 (antibody, human IgG1, V domains shown)
VH: QVQLVQSGAEVKKPGSSVKVSCKPSGGTFRSYAISWVRQAPGQGLEWMGRIIVFLGKVNYAQRFQGRVTLTADKSTTTAYMELSSLRSEDTAVYYCTGEPGARDPDAFDIWGQGTMVTVSS
VL: DIQMTQSPSSLSASVGDRVTITCRASQGIRSWLAWYQQKPEKAPKSLIYAASSLQSGVPSRFSGSGSGTDFTLTISSLQPEDFATYYCQQYNNYPLTFGGGTKVEIK
binding result [2]: binds
binding result (CD38 on Daudi-luc cells): binds

From US20130209355A1 (Genmab, published 2013)
